Positions count from the first letter of the chain named.
B1: IL6R-P781/IL6R-L (antibody, human IgG1, kappa)
heavy: QVQLQESGPGLVKPSETLSLTCAVSGHSISHDHAWSWVRQPPGEGLEWIGFISYSGITNYNPSLQGRVTISRDNSKNTLYLQMNSLRAEDTAVYYCARSLARTTAMDYWGEGTLVTVSSASTKGPSVFPLAPSSKSTSGGTAALGCLVKDYFPEPVTVSWNSGALTSGVHTFPAVLQSSGLYSLSSVVTVPSSSLGTQTYICNVNHKPSNTKVDKKVEPKSCDKTHTCPPCPAPELLGGDSVFLFPPKPKDTLMISRTPEVTCVVVDVSHEDPEVKFNWYVDGVEVHNAKTKPREEQYNATYRVVSVLTVLHQDWLNGKEYKCKVSNKGLPSSIEKTISKAKGQPREPQVYTLPPSRDELTKNQVSLTCLVKGFYPSDIAVEWESNGQPENNYKTTPPVLDSDGSFFLYSKLTVDKSRWQQGNVFSCSVMHEALHNHYTQKSLSLSP
light: not shown
B2: IL6R-P783/IL6R-L (antibody, human IgG1, kappa)
heavy: B1 heavy with G239D, A300S
light: not shown
B3: IL6R-P784/IL6R-L (antibody, human IgG1, kappa)
heavy: B1 heavy with E235D, G239D, A300S
light: not shown
B4: IL6R-P778/IL6R-L (antibody, human IgG1, kappa)
heavy: B1 heavy with E235D, V266I, S269A, H270E, P273G, A300S, K324E, G329A, S332A, S333P
light: not shown
B5: IL6R-P779/IL6R-L (antibody, human IgG1, kappa)
heavy: B1 heavy with V266I, S269A, H270E, P273G, A300S, K324A, G329A, S332A, S333P
light: not shown
B6: IL6R-P782/IL6R-L (antibody, human IgG1, kappa)
heavy: B1 heavy with E235D, A300S
light: not shown
B7: IL6R-P777/IL6R-L (antibody, human IgG1, kappa)
heavy: B1 heavy with E235D, V266I, S269A, H270E, P273G, A300S, K324A, G329A, S332A, S333P
light: not shown
B8: IL6R-P780/IL6R-L (antibody, human IgG1, kappa)
heavy: B1 heavy with V266I, S269A, H270E, P273G, A300S, K324E, G329A, S332A, S333P
light: not shown
B9: IL6R-P606/IL6R-L (antibody, human IgG1, kappa)
heavy: B1 heavy with E235D, S241K, V266I, S269A, H270E, P273G, A300S, G329A, S332A, S333P
light: not shown
B10: IL6R-P628/IL6R-L (antibody, human IgG1, kappa)
heavy: B1 heavy with E235D, G239R, V266I, S269A, H270E, P273G, A300S, G329A, S332A, S333P
light: not shown
B11: IL6R-P609/IL6R-L (antibody, human IgG1, kappa)
heavy: B1 heavy with E235D, L236A, V266I, S269A, H270E, P273G, A300S, G329A, S332A, S333P
light: not shown
B12: IL6R-P630/IL6R-L (antibody, human IgG1, kappa)
heavy: B1 heavy with E235D, V266I, D267K, S269A, H270E, P273G, A300S, G329A, S332A, S333P
light: not shown
B13: IL6R-P611/IL6R-L (antibody, human IgG1, kappa)
heavy: QVQLQESGPGLVKPSETLSLTCAVSGHSISHDHAWSWVRQPPGEGLEWIGFISYSGITNYNPSLQGRVTISRDNSKNTLYLQMNSLRAEDTAVYYCARSLARTTAMDYWGEGTLVTVSSASTKGPSVFPLAPSSKSTSGGTAALGCLVKDYFPEPVTVSWNSGALTSGVHTFPAVLQSSGLYSLSSVVTVPSSSLGTQTYICNVNHKPSNTKVDKKVEPKSCDKTHTCPPCPAPDALGDDSVFLFPPKPKDTLMISRTPEVTCVVIDVAEEDGEVKFNWYVDGVEVHNAKTKPREEQDNSTYRVVSVLTVLHQDWLNGKEYKCKVSNKALPRPIEKTISKAKGQPREPQVYTLPPSRDELTKNQVSLTCLVKGFYPSDIAVEWESNGQPENNYKTTPMVLDSDGSFFLYSKLTVDKSRWQQGNVFSCSVMHEALHNHYTQKSLSLSP
light: not shown
B14: IL6R-P617/IL6R-L (antibody, human IgG1, kappa)
heavy: B13 heavy with L237A
light: not shown
B15: IL6R-P627/IL6R-L (antibody, human IgG1, kappa)
heavy: B13 heavy with A236L, G238Q, D239G, D298Y, R332A, M398P
light: not shown
B16: IL6R-P613/IL6R-L (antibody, human IgG1, kappa)
heavy: B13 heavy with A236L, L237A, D239G, D298Y, R332A, M398P
light: not shown
B17: IL6R-P616/IL6R-L (antibody, human IgG1, kappa)
heavy: B13 heavy with L237A, D239G, D298Y, R332A, M398P
light: not shown
B18: IL6R-P614/IL6R-L (antibody, human IgG1, kappa)
heavy: B13 heavy with A236L, L237A
light: not shown
B19: IL6R-P607/IL6R-L (antibody, human IgG1, kappa)
heavy: B13 heavy with A236L, S241K
light: not shown
B20: IL6R-P624/IL6R-L (antibody, human IgG1, kappa)
heavy: B13 heavy with A236N, D239G, D298Y, R332A, M398P
light: not shown
B21: IL6R-P623/IL6R-L (antibody, human IgG1, kappa)
heavy: B13 heavy with A236H, D239G, D298Y, R332A, M398P
light: not shown
B22: IL6R-P637/IL6R-L (antibody, human IgG1, kappa)
heavy: B13 heavy with A236L, D239G, A269Y, D298Y, R332A, M398P
light: not shown

target: T1, human FcγRIa extracellular domain with C-terminal His tag (human, UniProt P12314 16-292); assay: SPR, antibody captured, FcgR analyte
T1 construct: Whole entry named; also called FcgRIa
T1 sequence (P12314 16-292): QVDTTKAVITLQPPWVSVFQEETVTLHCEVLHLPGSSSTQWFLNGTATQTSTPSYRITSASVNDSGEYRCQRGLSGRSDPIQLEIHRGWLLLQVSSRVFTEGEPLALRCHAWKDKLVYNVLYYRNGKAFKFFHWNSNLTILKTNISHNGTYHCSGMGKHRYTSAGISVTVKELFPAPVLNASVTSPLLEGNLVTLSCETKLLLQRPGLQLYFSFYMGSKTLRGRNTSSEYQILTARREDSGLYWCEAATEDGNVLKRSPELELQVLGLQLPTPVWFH

Binder | Kd
B1 | 17 nM
B2 | 160 nM
B3 | 88 nM
B4 | 0.96 nM
B5 | 3.4 nM
B6 | 30 nM
B7 | 1.6 nM
B8 | 2.1 nM

target: T2, human FcγRIIa R type extracellular domain with C-terminal His tag (human, UniProt P12318 34-217); assay: SPR, antibody captured, FcgR analyte
T2 construct: extracellular domain; also called FcgRIIaR
T2 sequence (looked up): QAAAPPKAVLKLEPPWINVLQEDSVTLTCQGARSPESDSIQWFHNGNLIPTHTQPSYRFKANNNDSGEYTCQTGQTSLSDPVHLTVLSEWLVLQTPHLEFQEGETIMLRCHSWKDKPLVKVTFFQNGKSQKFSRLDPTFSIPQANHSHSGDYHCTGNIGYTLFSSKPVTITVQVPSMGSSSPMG

Binder | Kd
B1 | 11000 nM
B2 | 39000 nM
B3 | 21000 nM
B4 | 1300 nM
B5 | 2200 nM
B6 | 37000 nM
B7 | 1900 nM
B8 | 1700 nM

target: T3, human FcγRIIb extracellular domain with C-terminal His tag (human, UniProt P31994 43-217); assay: SPR, antibody captured, FcgR analyte
T3 construct: extracellular domain; also called FcgRIIb
T3 sequence (looked up): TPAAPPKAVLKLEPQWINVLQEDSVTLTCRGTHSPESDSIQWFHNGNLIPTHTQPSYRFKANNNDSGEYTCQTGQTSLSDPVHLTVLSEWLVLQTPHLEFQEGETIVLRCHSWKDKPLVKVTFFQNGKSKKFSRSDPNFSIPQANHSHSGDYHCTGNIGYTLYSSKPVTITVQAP

Binder | Kd
B1 | 9000 nM
B2 | 3800 nM
B3 | 2200 nM
B4 | 25 nM
B5 | 50 nM
B6 | 3600 nM
B7 | 52 nM
B8 | 34 nM

target: T4, FcgRIIaR (human, UniProt P12318 34-217); assay: SPR, amount bound per captured antibody
T4 construct: extracellular domain; also called FcγRIIa R type; FcγRIIa (R type)
T4 sequence (looked up): T2 sequence (looked up)

Binder | Relative FcgRIIaR-binding Activity
B9 | 4.8 IL6R-G1d/IL6R-L=100
B10 | 48.1 IL6R-G1d/IL6R-L=100
B11 | 82.6 IL6R-G1d/IL6R-L=100
B12 | 4.1 IL6R-G1d/IL6R-L=100
B13 | 107 IL6R-G1d/IL6R-L=100
B14 | 49.2 IL6R-G1d/IL6R-L=100
B15 | 48.5 IL6R-G1d/IL6R-L=100
B16 | 61.2 IL6R-G1d/IL6R-L=100
B17 | 41.8 IL6R-G1d/IL6R-L=100
B18 | 69.5 IL6R-G1d/IL6R-L=100
B19 | 6.1 IL6R-G1d/IL6R-L=100
B20 | 67.1 IL6R-G1d/IL6R-L=100
B21 | 44.7 IL6R-G1d/IL6R-L=100

target: T5, FcgRIIb (human, UniProt P31994 43-217); assay: SPR, amount bound per captured antibody
T5 construct: extracellular domain; also called FcγRIIb
T5 sequence (looked up): T3 sequence (looked up)

Binder | Relative FcgRIIb-binding Activity
B9 | 7.7 IL6R-G1d/IL6R-L=100
B10 | 176 IL6R-G1d/IL6R-L=100
B22 | 55.5 IL6R-G1d/IL6R-L=100
B11 | 178 IL6R-G1d/IL6R-L=100
B12 | 7.1 IL6R-G1d/IL6R-L=100
B13 | 183 IL6R-G1d/IL6R-L=100
B14 | 158 IL6R-G1d/IL6R-L=100
B15 | 138 IL6R-G1d/IL6R-L=100
B16 | 120 IL6R-G1d/IL6R-L=100
B17 | 89.2 IL6R-G1d/IL6R-L=100
B18 | 176 IL6R-G1d/IL6R-L=100
B19 | 21.8 IL6R-G1d/IL6R-L=100
B20 | 173 IL6R-G1d/IL6R-L=100
B21 | 152 IL6R-G1d/IL6R-L=100

target: T1, human FcγRIa extracellular domain with …; assay: SPR, KD of IL6R-G1d/IL6R-L divided by KD of variant

Binder | Relative FcgRIa-binding Activity
B1 | 0.019
B2 | 0.002
B3 | 0.004
B4 | 0.333
B5 | 0.094
B6 | 0.011
B7 | 0.2
B8 | 0.152

target: T2, human FcγRIIa R type extracellular …; assay: as above

Binder | Relative FcgRIIaR-binding Activity
B1 | 0.1
B2 | 0.03
B3 | 0.05
B4 | 0.85
B5 | 0.5
B6 | 0.03
B7 | 0.58
B8 | 0.65

target: T6, human FcγRIIa H type extracellular domain with C-terminal His tag (human, UniProt P12318 34-217); assay: as above
T6 construct: extracellular domain; also called FcgRIIaH
T6 sequence (looked up): T2 sequence (looked up) with R134H

Binder | Relative FcgRIIaH-binding Activity
B1 | 0.003
B2 | 0.006
B3 | 0.007
B4 | 0.01
B5 | 0.009
B6 | 0.005
B7 | 0.008
B8 | 0.008

target: T3, human FcγRIIb extracellular domain with …; assay: as above

Binder | Relative FcgRIIb-binding Activity
B1 | 0.2
B2 | 0.6
B3 | 1
B4 | 84
B5 | 42
B6 | 0.6
B7 | 40.4
B8 | 61.8

target: T7, human FcγRIIIa V type extracellular domain with C-terminal His tag (human, UniProt P08637 17-208); assay: as above
T7 construct: extracellular domain; also called FcgRIIIaV
T7 sequence (P08637 17-208 F176V): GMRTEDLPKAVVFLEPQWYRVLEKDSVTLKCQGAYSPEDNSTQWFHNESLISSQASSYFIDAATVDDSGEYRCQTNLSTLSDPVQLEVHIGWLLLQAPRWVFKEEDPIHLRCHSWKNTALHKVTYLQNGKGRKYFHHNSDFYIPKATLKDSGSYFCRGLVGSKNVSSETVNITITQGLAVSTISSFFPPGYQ

Binder | Relative FcgRIIIaV-binding Activity
B1 | 0.007
B2 | 0.006
B3 | 0.01
B4 | 0.009
B5 | 0.011
B6 | 0.006
B7 | 0.007
B8 | 0.008
